Data published in paper PMC5568139, “Variants of sequence family B Thermococcus kodakaraensis DNA polymerase with increased mismatch extension selectivity” (PLoS ONE, 2017).
Changes are numbered by the printed parent chain. Names may count otherwise.

Substrate: Nc1nc2c(ncn2[C@H]2C[C@H](O)[C@@H](COP(=O)(O)OP(=O)(O)OP(=O)(O)O)O2)c(=O)[nH]1
Experiment: purified protein
Assay type: biochemical, Thermococcus kodakarensis
Settings: matched primer-template C-G (prothrombin factor II), Tris-HCl pH 8, 1.5 mM MgCl2, temperature not stated for kinetics (55 °C in primer extension assay)

B1: KOD pol wildtype (3'-5'-exonuclease deficient Thermococcus kodakaraensis DNA polymerase) (Thermococcus kodakarensis KOD1; D141A/E143A) (protein)
chain 1: MILDTDYITEDGKPVIRIFKKENGEFKIEYDRTFEPYFYALLKDDSAIEEVKKITAERHGTVVTVKRVEKVQKKFLGRPVEVWKLYFTHPQDVPAIRDKIREHPAVIDIYEYDIPFAKRYLIDKGLVPMEGDEELKMLAFAIATLYHEGEEFAEGPILMISYADEEGARVITWKNVDLPYVDVVSTEREMIKRFLRVVKEKDPDVLITYNGDNFDFAYLKKRCEKLGINFALGRDGSEPKIQRMGDRFAVEVKGRIHFDLYPVIRRTINLPTYTLEAVYEAVFGQPKEKVYAEEITTAWETGENLERVARYSMEDAKVTYELGKEFLPMEAQLSRLIGQSLWDVSRSSTGNLVEWFLLRKAYERNELAPNKPDEKELARRRQSYEGGYVKEPERGLWENIVYLDFR
chain 2: SLYPSIIITHNVSPDTLNREGCKEYDVAPQVGHRFCKDFPGFIPSLLGDLLEERQKIKKKMKATIDPIERKLLDYRQRAIKILAN
chain 3: SYYGYYGYARARWYCKECAESVTAWGREYITMTIKEIEEKYGFKVIYSDTDGFFATIPGADAETVKKKAMEFLKYINAKLPGALELEYEGFYKRGFFVTKKKYAVIDEEGKITTRGLEIVRRDWSEIAKETQARVLEALLKDGDVEKAVRIVKEVTEKLSKYEVPPEKLVIHEQITRDLKDYKATGPHVAVAKRLAARGVKIRPGTVISYIVLKGSGRIGDRAIPFDEFDPTKHKYDAEYYIENQVLPAVERILRAFGYRKEDLRYQKTRQVGLSAWLKPKGT
notes: mature intein-free polymerase expected (precursor holds two inteins); pET21a, E. coli BL21(DE3), Ni resin
Km: 0.168 ± 0.04 µM
kcat: 0.81 ± 0.12 s⁻¹
kcat/Km: 4.8e+06 ± 1.9e+06 M⁻¹ s⁻¹

B2: KOD pol wildtype (3'-5'-exonuclease deficient Thermococcus kodakaraensis DNA polymerase) (Thermococcus kodakarensis KOD1; D141A/E143A/R1398C) (protein)
chain 1: B1 chain 1
chain 2: B1 chain 2
chain 3: B1 chain 3 with R10C
notes: as for B1
Km: 96 ± 21 µM
kcat: 8.3 ± 0.6 s⁻¹
kcat/Km: 90000 ± 20000 M⁻¹ s⁻¹
